Source: publication PMC6303327, “A structural and dynamic model for the assembly of Replication Protein A on single-stranded DNA”

Tests used:
[1] = biological target: T1, ScRPA (Rfa1-Rfa2-Rfa3 heterotrimer, wild type) (Saccharomyces cerevisiae, UniProt P22336;P26754;P26755 1-621;1-273;1-122); assay: FRET titration; stoichiometric, X0 = 8.7 ± 0.3 nM at 10 nM DNA (1:1); EMSA: 20 mM Tris pH 7.5, 150 mM NaCl, 10 mM MgCl2, 0.01% Tween-20, room temperature, 30 min; MST: MST-binding buffer (composition not in material), room temperature, 20 min; FRET: reaction buffer not given, 10 nM DNA; conditions: protein: recombinant; tags: TEV-cleavable His6 on Rfa1; copies: 1;1;1; label: 5' Cy5, 3' Cy3
[2] = biological target: T1, ScRPA (Rfa1-Rfa2-Rfa3 heterotrimer, …); assay: MST; apparent EC50; Hill slope 0.9 ± 0.1; EMSA: 20 mM Tris pH 7.5, 150 mM NaCl, 10 mM MgCl2, 0.01% Tween-20, room temperature, 30 min; MST: MST-binding buffer (composition not in material), room temperature, 20 min; FRET: reaction buffer not given, 10 nM DNA; conditions: protein: recombinant; tags: TEV-cleavable His6 on Rfa1; copies: 1;1;1; label: 5' Cy5
DBD-A (Rfa1) = DBD-A (Rfa1) (Saccharomyces cerevisiae, UniProt P22336 178-294); assay: MST; EC50; EMSA: 20 mM Tris pH 7.5, 150 mM NaCl, 10 mM MgCl2, 0.01% Tween-20, room temperature, 30 min; MST: MST-binding buffer (composition not in material), room temperature, 20 min; FRET: reaction buffer not given, 10 nM DNA; conditions: protein: recombinant; tags: GST removed by 3C cleavage; label: Cy5 (5')
DBD-A S178D = DBD-A S178D (Saccharomyces cerevisiae, UniProt P22336 178-294, S178D); assay: MST; S178D did not affect dT7 binding; EMSA: 20 mM Tris pH 7.5, 150 mM NaCl, 10 mM MgCl2, 0.01% Tween-20, room temperature, 30 min; MST: MST-binding buffer (composition not in material), room temperature, 20 min; FRET: reaction buffer not given, 10 nM DNA; conditions: protein: recombinant; tags: GST removed by 3C cleavage; label: Cy5 (5')
[3] = biological target: T1, ScRPA (Rfa1-Rfa2-Rfa3 heterotrimer, …); assay: FRET titration; 10 nM DNA; Hill fit; panel in Supplementary Fig. 14 gives 38.7 ± 0.8; EMSA: 20 mM Tris pH 7.5, 150 mM NaCl, 10 mM MgCl2, 0.01% Tween-20, room temperature, 30 min; MST: MST-binding buffer (composition not in material), room temperature, 20 min; FRET: reaction buffer not given, 10 nM DNA; conditions: protein: recombinant; tags: TEV-cleavable His6 on Rfa1; copies: 1;1;1; label: 5' Cy5, Cy3 after nt 29

T1 sequence (P22336 whole entry, chain 1 of 3): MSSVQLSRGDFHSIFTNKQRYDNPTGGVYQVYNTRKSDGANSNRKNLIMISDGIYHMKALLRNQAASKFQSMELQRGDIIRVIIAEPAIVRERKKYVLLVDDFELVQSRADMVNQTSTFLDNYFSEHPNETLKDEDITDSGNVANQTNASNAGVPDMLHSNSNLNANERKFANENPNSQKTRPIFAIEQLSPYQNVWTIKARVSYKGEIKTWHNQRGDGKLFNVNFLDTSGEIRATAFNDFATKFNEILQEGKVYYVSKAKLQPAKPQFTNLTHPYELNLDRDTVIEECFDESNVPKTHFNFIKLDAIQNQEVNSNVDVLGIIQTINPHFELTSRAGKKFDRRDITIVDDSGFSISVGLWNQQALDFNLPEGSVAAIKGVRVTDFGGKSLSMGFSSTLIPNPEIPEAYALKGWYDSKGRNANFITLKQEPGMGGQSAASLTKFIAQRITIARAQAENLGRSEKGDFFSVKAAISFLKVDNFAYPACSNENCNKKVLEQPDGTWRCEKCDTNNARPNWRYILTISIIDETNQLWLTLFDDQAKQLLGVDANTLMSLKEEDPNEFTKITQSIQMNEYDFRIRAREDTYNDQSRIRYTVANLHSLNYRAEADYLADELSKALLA
T1 sequence (P26754 whole entry, chain 2 of 3): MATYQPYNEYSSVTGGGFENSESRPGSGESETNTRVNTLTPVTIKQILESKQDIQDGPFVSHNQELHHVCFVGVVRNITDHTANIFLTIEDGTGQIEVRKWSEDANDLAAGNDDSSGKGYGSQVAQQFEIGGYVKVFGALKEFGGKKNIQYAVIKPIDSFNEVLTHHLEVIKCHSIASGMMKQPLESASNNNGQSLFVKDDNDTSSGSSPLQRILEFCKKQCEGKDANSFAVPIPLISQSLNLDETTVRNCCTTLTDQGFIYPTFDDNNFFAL
T1 sequence (P26755 whole entry, chain 3 of 3): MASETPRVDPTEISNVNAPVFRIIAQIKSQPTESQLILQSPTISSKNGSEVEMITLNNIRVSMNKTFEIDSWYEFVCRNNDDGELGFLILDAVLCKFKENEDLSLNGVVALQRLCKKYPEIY
Sequence of DBD-A S178D (P22336 178-294 S178D): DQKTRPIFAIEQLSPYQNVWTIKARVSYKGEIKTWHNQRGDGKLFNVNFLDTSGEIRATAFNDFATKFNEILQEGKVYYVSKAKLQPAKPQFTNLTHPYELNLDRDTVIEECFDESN
Sequence of DBD-A (Rfa1) (P22336 178-294): as the sequence (P22336 178-294 S178D) above, with D1S counted along it

Binder: TTTTTTTTTTTTTTTTTTTTTTTTTTTTTT (ssDNA) [dT30 (FRET)]
- binding result [1]: binds

B1: dT100 (Cy5) (ssDNA)
DNA: TTTTTTTTTTTTTTTTTTTTTTTTTTTTTTTTTTTTTTTTTTTTTTTTTTTTTTTTTTTTTTTTTTTTTTTTTTTTTTTTTTTTTTTTTTTTTTTTTTTT
- apparent K (half saturation) [2]: ~20 nM

Binder: TTTTTTT (ssDNA) [dT7 (Cy5)]
- apparent K (half saturation) (DBD-A (Rfa1)): 309 ± 18 nM
- binding result (DBD-A S178D): binds

B2: dT90(1-30) (ssDNA)
DNA: TTTTTTTTTTTTTTTTTTTTTTTTTTTTTTTTTTTTTTTTTTTTTTTTTTTTTTTTTTTTTTTTTTTTTTTTTTTTTTTTTTTTTTTTTT
modifications: internal Cy3 in backbone
- Kd [3]: 39.3 ± 0.9 nM
